Assay results from article PMC12234955 (Nature Communications, 2025).

Tests used:
[1] = molecular target: T1, Norrin-Fc (human Norrin K25-S133, HRV 3C site, human IgG1 Fc, C-terminal FLAG) (human), Q00604; assay: cryo-EM structure; conditions: remark: other sources report otherwise
T1 chain: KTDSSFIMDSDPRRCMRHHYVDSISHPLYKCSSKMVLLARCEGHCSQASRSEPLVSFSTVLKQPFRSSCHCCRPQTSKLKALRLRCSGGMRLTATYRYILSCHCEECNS

[2] = molecular target: Human LGR4 (residues A25-Q833), C-terminal Flag tag (human, UniProt Q9BXB1 25-833); assay: cryo-EM structure
[3] = molecular target: LGR4-ECD (LGR4 ectodomain) (human, UniProt Q9BXB1); assay: BLI

B1: Norrin-Fc (human Norrin K25-S133, HRV 3C site, human IgG1 Fc, C-terminal FLAG), Q00604 25-133 (Fc fusion)
chain: KTDSSFIMDSDPRRCMRHHYVDSISHPLYKCSSKMVLLARCEGHCSQASRSEPLVSFSTVLKQPFRSSCHCCRPQTSKLKALRLRCSGGMRLTATYRYILSCHCEECNS
stoichiometry N [1]: 2

B2: Norrin-Fc (human Norrin K25-S133, HRV 3C site, human IgG1 Fc, C-terminal FLAG) (Fc fusion)
chain: KTDSSFIMDSDPRRCMRHHYVDSISHPLYKCSSKMVLLARCEGHCSQASRSEPLVSFSTVLKQPFRSSCHCCRPQTSKLKALRLRCSGGMRLTATYRYILSCHCEECNS
stoichiometry N [2]: 1 Norrin chains per LGR4 (2:2)

B3: NB18 (VHH)
VHH: QVQLQESGGGSVQAGGSLRLSCAASGYTYSRTCMAWFRQAPGKEREGIATINSDGTTTYADSVKGRFTISRDNAKNTLSLQMNSLKPEDTAMYYCAAASLSTRGCSRAEWEYRYWGQGTQVTVSS
Kd [3]: 0.15 nM
